Results on one molecule are retold here after paper PMC9597352.

This assay deals with T1, GST-Arl8b, Q9NVJ2.
T1 chain: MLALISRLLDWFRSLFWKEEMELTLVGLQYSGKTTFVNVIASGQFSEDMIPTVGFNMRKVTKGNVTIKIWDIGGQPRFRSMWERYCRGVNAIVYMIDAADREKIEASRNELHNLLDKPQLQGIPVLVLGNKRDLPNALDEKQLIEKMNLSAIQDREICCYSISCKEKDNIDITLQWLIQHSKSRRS
Nature of the assay: pull-down; GST-Arl8b on glutathione-agarose beads loaded with 20 mM GTP (TAP lysis buffer, 10 mM MgCl2, 30 min, 4°C), then HEK293T lysates of transfected cells, 2 h, 4°C; anti-FLAG blot. Conditions: remark: other sources report otherwise.

B1: RUFY3-FLAG, Q7L099 1-469 (natural protein)
chain: MSALTPPTDMPTPTTDKITQAAMETIYLCKFRVSMDGEWLCLRELDDISLTPDPEPTHEDPNYLMANERMNLMNMAKLSIKGLIESALNLGRTLDSDYAPLQQFFVVMEHCLKHGLKAKKTFLGQNKSFWGPLELVEKLVPEAAEITASVKDLPGLKTPVGRGRAWLRLALMQKKLSEYMKALINKKELLSEFYEPNALMMEEEGAIIAGLLVGLNVIDANFCMKGEDLDSQVGVIDFSMYLKDGNSSKGTEGDGQITAILDQKNYVEELNRHLNATVNNLQAKVDALEKSNTKLTEELAVANNRIITLQEEMERVKEESSYILESNRKGPKQDRTAEGQALSEARKHLKEETQLRLDVEKELEMQISMRQEMELAMKMLEKDVCEKQDALVSLRQQLDDLRALKHELAFKLQSSDLGVKQKSELNSRLEEKTNQMAATIKQLEQSEKDLVKQAKTLNSAANKLIPKHH
The molecule B1 gave a pulldown relative to RUFY1 (densitometry, normalized to input) of 2 fold.
